Laboratory results published in patent US20160032004A1 (published 2016).

Tests used:
[1] = molecular target: T1, CD74 (invariant chain, Ii) (human, UniProt P04233 1-296); experiment: flow cytometry, membrane-only, HuH-7 cells
T1 construct: whole, on cells; Endogenous antigen of human cancer cell lines; measured on the surface only or on surface plus cytoplasm (permeabilized cells)
T1 sequence (looked up): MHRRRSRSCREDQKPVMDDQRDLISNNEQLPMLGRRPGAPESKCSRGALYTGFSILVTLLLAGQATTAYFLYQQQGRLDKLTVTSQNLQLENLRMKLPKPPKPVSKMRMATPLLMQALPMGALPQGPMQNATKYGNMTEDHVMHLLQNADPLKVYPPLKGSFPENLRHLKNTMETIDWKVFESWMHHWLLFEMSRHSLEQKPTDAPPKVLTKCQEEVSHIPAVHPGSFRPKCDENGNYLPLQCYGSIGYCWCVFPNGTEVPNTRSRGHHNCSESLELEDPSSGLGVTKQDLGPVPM

[2] = molecular target: T1, CD74 (invariant chain, Ii); experiment: flow cytometry, membrane-only, Hep-G2 cells
[3] = molecular target: T1, CD74 (invariant chain, Ii); experiment: flow cytometry, membrane-only, Hs746T cells
[4] = molecular target: T1, CD74 (invariant chain, Ii); experiment: flow cytometry, permeabilized A-375 cells
[5] = molecular target: T1, CD74 (invariant chain, Ii); experiment: flow cytometry, permeabilized Capan-1 cells
[6] = molecular target: T1, CD74 (invariant chain, Ii); experiment: flow cytometry, membrane-only, Capan-1 cells
[7] = molecular target: T1, CD74 (invariant chain, Ii); experiment: flow cytometry, membrane-only, Raji cells
[8] = molecular target: T1, CD74 (invariant chain, Ii); experiment: flow cytometry, permeabilized NCI-N87 cells
[9] = molecular target: T1, CD74 (invariant chain, Ii); experiment: flow cytometry, permeabilized HuH-7 cells
[10] = molecular target: T1, CD74 (invariant chain, Ii); experiment: flow cytometry, permeabilized Raji cells
[11] = molecular target: T1, CD74 (invariant chain, Ii); experiment: flow cytometry, membrane-only, A-375 cells
[12] = molecular target: T1, CD74 (invariant chain, Ii); experiment: flow cytometry, membrane-only, NCI-N87 cells
[13] = molecular target: T1, CD74 (invariant chain, Ii); experiment: cell binding assay on antigen-positive cells
[14] = molecular target: T1, CD74 (invariant chain, Ii); experiment: flow cytometry, permeabilized Hep-G2 cells
[15] = molecular target: T1, CD74 (invariant chain, Ii); experiment: flow cytometry, permeabilized Hs746T cells

MFI Ratio hLL1:bkgd (surface) [1]: 1.6
MFI Ratio hLL1:bkgd (surface) [2]: 1.5
MFI Ratio hLL1:bkgd (surface) [3]: 2.1
MFI Ratio hLL1:bkgd (surface and cytoplasmic) [4]: 30.8
MFI Ratio hLL1:bkgd (surface and cytoplasmic) [5]: 49.6
MFI Ratio hLL1:bkgd (surface) [6]: 1.8
MFI Ratio hLL1:bkgd (surface) [7]: 19.6
MFI Ratio hLL1:bkgd (surface and cytoplasmic) [8]: 36.7
MFI Ratio hLL1:bkgd (surface and cytoplasmic) [9]: 28.5
MFI Ratio hLL1:bkgd (surface and cytoplasmic) [10]: 28.6
MFI Ratio hLL1:bkgd (surface) [11]: 5.3
MFI Ratio hLL1:bkgd (surface) [12]: 1.3
Kd [13]: 770 pM
MFI Ratio hLL1:bkgd (surface and cytoplasmic) [14]: 31.2
MFI Ratio hLL1:bkgd (surface and cytoplasmic) [15]: 28.8
B1: Milatuzumab (humanized anti-CD74 antibody, hLL1) (antibody, V domains shown)
VH: QVQLQQSGSELKKPGASVKVSCKASGYTFTNYGVNWIKQAPGQGLQWMGWINPNTGEPTFDDDFKGRFAFSLDTSVSTAYLQISSLKADDTAVYFCSRSRGKNEAWFAYWGQGTLVTVSS
VL: DIQLTQSPLSLPVTLGQPASISCRSSQSLVHRNGNTYLHWFQQRPGQSPRLLIYTVSNRFSGVPDRFSGSGSGTDFTLKISRVEAEDVGVYFCSQSSHVPPTFGAGTRLEIK
